± gives the half width of the 95% confidence interval.
How the values were obtained:
[1] = folding stability dG unfold from trypsin proteolysis; higher = more stable
Method in brief: (§1)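 Only designs with AlphaFold2 dimer inter-PAE above 15 were retained; each was a mini-protein under 80 residues with no cysteine, in a PA-tagged cDNA display construct. After digestion with trypsin and chymotrypsin and sequencing, K50 was inferred by Bayesian fitting of counts, and unfolding free energy was derived per protease or combined against a sequence-predicted unfolded-state K50 and a shared folded-state K50.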

[2] = folding stability dG unfold from chymotrypsin proteolysis; higher = more stable
Method in brief: as §1

[3] = folding stability dG unfold (combined trypsin and chymotrypsin); higher = more stable
Method in brief: as §1

Sequence	folding stability dG unfold [1] [kcal/mol]	folding stability dG unfold [2] [kcal/mol]	folding stability dG unfold [3] [kcal/mol]
SAGGSAETIETVSSTFPVFSEDDKPVAVVKTYIFKFEDGELVLTEVFTPDGKPVAVKVASLDEFLNSAGGSA [r15_755_TrMRF]	1.27 ± 0.025	1.7 ± 0.045	1.56 ± 0.071
SAGGSAETLTITLTVKPGETVTIKALFKAEDGSVYAVTATFTAEDEGTVTITVTRLPPGVKDLADLSAGGSA [r15_909_TrROS_Hall]	2.83 ± 0.099	4.71 ± 0.1	4.4 ± 0.16
SAGGSAEVELVKVEVNPDGPYVKATFRIPGGGDVAVLVFDPDRPNTARLIVRPPNNEPIAEIELPLSAGGSA [r15_974_TrMRF]	1.52 ± 0.046	1.83 ± 0.28	1.65 ± 0.2
SAGGSAEWKEKALKMGAKEVKEDPANGYLYVTFPGPGRTIVIWKKEEDGTVTKVKTVSPSVKVEYKSAGGSA [r15_247_JUSTAS]	-0.292 ± 0.41	0.817 ± 0.27	0.491 ± 0.18
SAGGSAGDKVVTVTATFTTTDPNGNEITIIAPITFLNGEGTAVIDAKAFNPTGELIAEATITVPIGSAGGSA [r15_967_TrMRF]	1.69 ± 0.057	2.34 ± 0.028	2.07 ± 0.087
SAGGSAGGAERIKNLLEDYGFELKDVEMDEPGSTKIHITPDNPSLRKDIKDKLPPGNVDSITDTSAGGSAGG [r6_84_TrROS]	-0.0811 ± 0.14	1.33 ± 0.12	0.882 ± 0.26
SAGGSAGGAKPPKTVTVKVEVTNADGETQTRTVTLTNLPKDLKPGDTVTLPETGQTARIVEITPSAGGSAGG [r6_560_TrROS_Hall]	3.27 ± 0.078	3.02 ± 0.097	3.17 ± 0.1
SAGGSAGGDEIADKVKDLLRKHGWPVKEVEVTVMPHPPGRVYVMIEITMEHPGKKWTMEIMVEVSAGGSAGG [r6_533_TrROS]	3.15 ± 0.14	4.79 ± 0.054	4.66 ± 0.13
SAGGSAGGDESSTPPVTTTSTTPLPDGSTVTVTSTTTYPDSTTTTTKTYSNGSTTTSTTTTPGSSAGGSAGG [r6_910_JUSTAS]	-0.0832 ± 0.051	-0.803 ± 0.35	-0.285 ± 0.13
SAGGSAGGDGLELKLTFTIPVTARSPLGGSYPVYLRLTLTYRLDDPRWELDLYALDPNGNWYPVSAGGSAGG [r6_393_TrMRF]	3.66 ± 0.18	5.12 ± 0.092	4.84 ± 0.1
SAGGSAGGDKKGKPKPQWVTIMFKVPDDDLPPEEIAKEFPGVKIERSPGMYMITVPVNGKWIPFSAGGSAGG [r6_739_TrROS]	1.02 ± 0.039	1.25 ± 0.14	1.13 ± 0.093
SAGGSAGGDNWYHITIFRMKIKEVEPRKDPDGEKEPQFNFKIKEVVTIPIPPNDPEKLKDALGASAGGSAGG [r6_738_TrROS]	0.745 ± 0.079	1.84 ± 0.13	1.37 ± 0.12
SAGGSAGGDPPNVKIEPEIEPRRDPDGKPYVKIPYTIELPDGRPIQIDMWIDPKNGNQGPHIHISAGGSAGG [r6_298_TrROS]	0.817 ± 0.24	0.486 ± 0.31	0.64 ± 0.54
SAGGSAGGDVVIIPEPSEEDKMIFTIVADGEEAPVVLTVEADNLADVVDFLKEHGLAAGHPDDGSAGGSAGG [r6_40_TrMRF]	0.713 ± 0.065	0.637 ± 0.052	0.679 ± 0.11
SAGGSAGGDYERDPNNGKMKMKPKVEPPPPPKIIQIQIPFPEEADDFMNELQDNGYPIYLSPGGSAGGSAGG [r6_872_TrROS]	1.29 ± 0.18	0.179 ± 0.14	0.745 ± 0.3
SAGGSAGGEDRLLLRVEVIVGGVPFEPVLEVDHPELRELLEEGRVLVVELPGGAVGRLYAEPLASAGGSAGG [r6_478_TrMRF]	0.7 ± 0.049	0.704 ± 0.11	0.811 ± 0.1
SAGGSAGGEEAPPPPVTVTVTIEVEENEDGTLTVRIEVRDEATGETRTITVTMTLEELEELAKASAGGSAGG [r6_995_TrROS_Hall]	2.78 ± 0.11	2.56 ± 0.13	2.78 ± 0.22
SAGGSAGGEEIAKKLGIEKAEIVEVKDNKITLKVKLKNGEELKIELYIDKKTKEIKIVKIEKVPSAGGSAGG [r6_526_TrROS_Hall]	2.37 ± 0.079	3.11 ± 0.075	2.88 ± 0.23
SAGGSAGGEERVRLPITLEVPVPLAPVLLVSPDGSERLVPLPSVTLRITLELELTKEEWEKLLSSAGGSAGG [r6_119_TrMRF]	3.06 ± 0.2	3.36 ± 0.13	3.16 ± 0.15
SAGGSAGGEIEILPGAKIVRVERRKDGSLLIVVEVDGKLYLFRFKDGKVEVIELPEGASLEELLSAGGSAGG [r6_680_TrROS_Hall]	4.23 ± 0.14	4.99 ± 0.086	4.92 ± 0.087
SAGGSAGGEISPEDIESVETETRTLPNGLKITRTRVRVKKTNQWFELVRIEPLPAEELSEEELKSAGGSAGG [r6_757_TrROS_Hall]	1.37 ± 0.053	1.78 ± 0.062	1.59 ± 0.13

Sequence	folding stability dG unfold [1] [kcal/mol]	folding stability dG unfold [2] [kcal/mol]	folding stability dG unfold [3] [kcal/mol]
SAGGSAGGEIVITLPNVKSKEEAKKAAEKLIEELKKKGIKDKTIKVTVIDEKTGKEYTFTIKLKSAGGSAGG [r6_237_TrROS_Hall]	3.81 ± 0.15	4.38 ± 0.16	4.14 ± 0.3
SAGGSAGGEKVEKKEVKVELKIVIVVSEELREMSEEELEELLKELAAKLPGVKEVKIEILPLPESAGGSAGG [r6_710_TrROS_Hall]	1.04 ± 0.13	1.34 ± 0.13	1.16 ± 0.13
SAGGSAGGELEELPGLKVVAVFELPGNRRLVLFEAEGGRYLLLVEGEGTRLVPVPEDVSLEELASAGGSAGG [r6_680_TrMRF]	2.73 ± 0.043	3.394 ± 0.031	3.179 ± 0.03
SAGGSAGGEMTAEELAEKLAEELKEKGYEVEVEVVEVEVEEDTVRIKIKLKDGRELEIELKIEPSAGGSAGG [r6_617_TrROS_Hall]	2.58 ± 0.16	2.79 ± 0.28	2.74 ± 0.25
SAGGSAGGEPETIEIKMTPEELEELARELEKEGYTIEVEVVEEKVVGPDGKEREVVVRVRVEKRSAGGSAGG [r6_857_TrROS_Hall]	0.991 ± 0.03	1.32 ± 0.04	1.1 ± 0.099
SAGGSAGGESSRLVAVFKFPPSNPNIKTSISFPSLPKSAKISESQAPFGNEYYLVVVIEVPKNSSAGGSAGG [r6_480_TrMRF]	2.6 ± 0.16	3.88 ± 0.14	3.37 ± 0.16
SAGGSAGGEYEISIPNYELTEEKFDPNPGLLTVTYKDPEGKLVTITYKVKPDSIEKVKTETFEPSAGGSAGG [r6_719_JUSTAS]	0.569 ± 0.022	1.14 ± 0.049	0.963 ± 0.064
SAGGSAGGFFHIEIEWRPVKLEDLPEEDAANGKELKPGDEIWVIVKIEIYPMPPPKFDKDGELNSAGGSAGG [r6_547_TrROS]	2.23 ± 0.19	3.31 ± 0.23	2.77 ± 0.2
SAGGSAGGFKIPPGKTIMIQYPDGWMWRIKVKDGNTHMFKSPEEIEKLLNKPGFEIEIEWFPLDSAGGSAGG [r6_433_TrROS]	1.63 ± 0.083	1.74 ± 0.24	1.67 ± 0.19
SAGGSAGGGAVVLEEAFDPVRPERLVLVEVVNEKGEPFRFPVPLEDLEAVFEKLPPGFPVLVLPSAGGSAGG [r6_111_TrMRF]	0.491 ± 0.021	0.135 ± 0.1	0.36 ± 0.048
SAGGSAGGGDEVKTFKAKVKLVSVDPETGEQLVLAEVPDGKPILVKVPKSFPLKEDEIVEFELSSAGGSAGG [r6_68_TrMRF]	1.16 ± 0.027	1.31 ± 0.036	1.3 ± 0.059
SAGGSAGGGEMELVLTVPPEEVTPEQLLELVEEIREALEKGGAKAEPVKIDPEKGVVILFRVDPSAGGSAGG [r6_850_TrMRF]	-0.273 ± 0.14	0.258 ± 0.27	0.00838 ± 0.26
SAGGSAGGGEPFVIRVELEWPNNNSIPFNIPFPPGDAITAAKNIASPLRKMGRPIKIKITDIYPSAGGSAGG [r6_721_TrROS]	0.545 ± 0.13	0.0836 ± 0.41	0.419 ± 0.16
SAGGSAGGGFILEVDPEKGVAVAYFDPSTGEVVVAVPEGPVYRFASAEEVVAATGKPVVIVPATSAGGSAGG [r6_752_TrMRF]	1.17 ± 0.024	0.702 ± 0.044	0.966 ± 0.054
SAGGSAGGGGMTVTITVPVPSPTATYTVSFPSSSATASFTAEPGGPLTITVNAPSVTSITVTVSSAGGSAGG [r6_808_JUSTAS]	3.03 ± 0.1	3.98 ± 0.053	3.63 ± 0.11
SAGGSAGGGGTLTIEVDAPAGAKKINIELPGGTVSNLSYDPSTGKATIPFDTPEQAKAVEALVGSAGGSAGG [r6_745_TrMRF]	-0.493 ± 0.097	0.098 ± 0.088	-0.086 ± 0.058
SAGGSAGGGKPKVEIEYNGKTYEFDSLEELVAEAKEPVRIRLPNGEEIELSREDLKNLTVRLVPSAGGSAGG [r6_684_TrROS_Hall]	1.55 ± 0.018	2.29 ± 0.056	1.99 ± 0.043
SAGGSAGGGKRLEITRTYFIPPDDIDKLKDLPGIREVTPHRMPDGYYMITVTIRIPISADQLKASAGGSAGG [r6_155_TrROS]	1.7 ± 0.051	2.1 ± 0.084	1.94 ± 0.2
SAGGSAGGGMKFVKVTLEYAGGEVREYLFTTSSSDSTVEVVIEDLPPEKGARITEITEYPASLLSAGGSAGG [r6_530_JUSTAS]	0.746 ± 0.068	1.17 ± 0.16	0.978 ± 0.21
SAGGSAGGGMKITEITIEKDPENPDTYTITIKVDGKTYTITVKKGETLYIFDKDGKLVLEIKVDSAGGSAGG [r6_920_TrROS_Hall]	4 ± 0.41	5.24 ± 0.14	5.1 ± 0.25
SAGGSAGGGMKVKKIEIKKDPNNPNIYTITIELEDEPIEYTVPPSTPTTIKKPGGKPLYSSPLPSAGGSAGG [r6_922_JUSTAS]	-0.626 ± 0.24	0.986 ± 0.26	0.567 ± 0.15
